Experimental findings from patent US20220372125A1 (ASLAN PHARMACEUTICALS PTE, published 2022) are described below.

In assay [1] the target is T1, Mammalian expressed extracellular human RON protein (Gly25 to Thr957) with His-tag (human, UniProt Q04912 25-957).
T1 construct: Expressed in ExpiCHO cells, purified on nickel; Position of the His-tag is told inconsistently; Written as one chain; also called RON ECD; RON ECD antigen; not shown: His-tag
T1 sequence: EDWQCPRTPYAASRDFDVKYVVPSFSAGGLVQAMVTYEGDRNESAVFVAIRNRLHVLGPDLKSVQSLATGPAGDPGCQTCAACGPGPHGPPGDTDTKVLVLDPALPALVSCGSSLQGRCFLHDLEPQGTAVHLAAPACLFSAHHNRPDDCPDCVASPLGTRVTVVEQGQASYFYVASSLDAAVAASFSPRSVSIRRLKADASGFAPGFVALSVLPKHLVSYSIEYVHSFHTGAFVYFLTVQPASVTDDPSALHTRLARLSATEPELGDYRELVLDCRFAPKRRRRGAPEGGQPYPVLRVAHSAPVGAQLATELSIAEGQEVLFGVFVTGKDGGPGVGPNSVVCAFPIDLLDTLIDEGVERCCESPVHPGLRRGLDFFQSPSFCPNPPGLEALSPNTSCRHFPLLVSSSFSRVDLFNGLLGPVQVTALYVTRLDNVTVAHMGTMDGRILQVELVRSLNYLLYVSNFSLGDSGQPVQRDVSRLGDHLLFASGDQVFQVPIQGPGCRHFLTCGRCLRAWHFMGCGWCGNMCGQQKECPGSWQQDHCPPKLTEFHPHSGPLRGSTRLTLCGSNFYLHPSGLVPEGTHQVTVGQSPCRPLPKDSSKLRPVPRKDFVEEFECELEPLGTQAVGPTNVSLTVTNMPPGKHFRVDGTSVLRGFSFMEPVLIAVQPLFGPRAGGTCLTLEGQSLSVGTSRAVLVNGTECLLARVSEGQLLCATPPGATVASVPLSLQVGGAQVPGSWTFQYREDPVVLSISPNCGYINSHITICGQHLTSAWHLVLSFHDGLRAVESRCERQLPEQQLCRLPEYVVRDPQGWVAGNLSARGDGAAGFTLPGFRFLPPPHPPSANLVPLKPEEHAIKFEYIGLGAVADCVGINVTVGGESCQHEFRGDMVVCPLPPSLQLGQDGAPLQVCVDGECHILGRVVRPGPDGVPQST
Kind of assay: KinExA, RON-HIS; 95% Confidence Level 167.21 pM to 304.60 pM. The method, then:
(§1) Mammalian produced recombinant extracellular His-tag RON protein was used for affinity measurements. Affinity determinations were carried out in the fixed antigen format. Antibodies were titrated as two-fold dilutions into a fixed concentration of RON antigen. RON protein was detected using mouse monoclonal to 6×His-Tag (Dylight@650, Thermo Fisher). All affinity measurements were carried out using the KinExa 4000 (Sapidyne Instruments).

For assay [2], the target named is T1, Mammalian expressed extracellular human …. The assay can be described thus: KinExA, RON-HIS.
Assay [3] has the same target. Kind of assay: KinExA, apparent Kd, column 'Kd by Kinexa (nM)' [continued]. Here is the method: Titration curves were generated using indicated fixed concentrations of extracellular RON antigens measured by calibration free concentration analysis (CFCA). Increasing concentrations of RON antibodies were titrated for measurement of binding. Apparent Kd values were determined from an average of the two curves and plotted in table shown.
This limitation of the SPR method for highly avid antibodies has been described previously and the use of kinetic exclusion assay has been proposed as a way to overcome this limitation allowing measurements in the sub nanomolar range. We employed the Kinetic Exclusion assay (KinEXa) method to measure the Kd values of all of the new antibodies using a fixed concentration of the recombinant mammalian expressed protein as the target antigen and a twelve-point dilution curve of each antibody. We dropped antibody 9F6, in this assay as it seemed less avid than the other antibodies in preliminary SPR binding assays. The remaining seven antibodies gave exactly accurate results in duplicate analysis (FIG. 6).
as §1

Assay [4] has the same target. The assay can be described thus: KinExA, RON-HIS; 95% Confidence Level 9.65 x 105 to 1.60 x 106.
The target of assay [5] is RON (Macrophage stimulating protein receptor), full length, on cells (human, UniProt Q04912 25-1400). Kind of assay: cell-based or functional assay.
Assay [6] concerns the target T1, Mammalian expressed extracellular human …. The assay can be described thus: KinExA, RON-HIS; 95% Confidence Level 2.30 x 106 to 2.74 x 106.
Assay [7] has the same target. The assay can be described thus: KinExA, RON-HIS; 95% Confidence Level 92.36 pM to 219.67 pM. Here is the method: as §1
Assay [8] shares this target. The assay can be described thus: KinExA, RON-HIS; 95% Confidence Level 8.64 nM to 18.70 nM. Here is the method: as §1
The target is the same in assay [9]. The assay can be described thus: KinExA, RON-HIS; 95% Confidence Level 2.68 x 105 to 3.10 x 105.
Assay [10] has the same target. The assay can be described thus: KinExA, RON-HIS; 95% Confidence Level 1.74 nM to 4.11 nM. Here is the method: as §1
The target is the same in assay [11]. The assay can be described thus: KinExA, RON-HIS; 95% Confidence Level 1.05 x 105 to 1.61 x 105.
Assay [12] has the same target. The assay can be described thus: KinExA, RON-HIS; 95% Confidence Level 2.55 x 105 to 2.81 x 105.
Assay [13] has the same target. Kind of assay: KinExA, RON-HIS; 95% Confidence Level 5.94 nM to 11.84 nM. Here is the method:
as §1

Assay [14] has the same target. The assay can be described thus: KinExA, RON-HIS; 95% Confidence Level 2.24 x 106 to 4.45 x 106.
Assay [15] shares this target. Kind of assay: KinExA, RON-HIS; 95% Confidence Level 448.10 pM to 200.01 pM. Here is the method: as §1

B1: 7H11 (antibody, V domains shown)
VH: EVKLEQSGPELVKPGASVKISCKASGYTFTDYNMHWVRQPPGQSLEWIGFIYPYNGNSGYNPNFKTKATLTMDISSSTAYMEVRNLTSEDSATYFCASLYYLGYFDVWGAGTTVTVSS
VL: DIVLTQSPVSLAVSLGQRATISCRASKSVSTSAYNFMHWYQQKPGQPPKLLIYLASNLESGVPARLSGSGSGTDFTLNIHPVEEEDAATYYCQHSRELPYTFGGGTKLEIKR
notes: Mouse monoclonal antibody from a hybridoma; kappa light chain; also called Antibody 7H11; anti-RON antibody 7H11
B1: the Kd in assay [1] and in [3] was 0.23 nM each time. For the same molecule, in assay [2], the dissociation rate constant (koff) amounted to 0.000286 s⁻¹. The molecule further gave a kon in assay [4] of 1.25e+06 M⁻¹ s⁻¹.

B2: Narnatumab (antibody, V domains shown)
VH: EVQLVESGGGLVQPGGSLRLSCAASGFTFSSYLMTWVRQAPGKGLEWVANIKQDGSEKYYVDSVKGRFTISRDNAKNSLNLQMNSLRAEDTAVYYCTRDGYSSGRHYGMDVWGQGTTVIVSS
VL: EIVLTQSPATLSLSPGERATLSCRASQSVSRYLAWYQQKPGQAPRLLIYDASNRATGIPARFSGSGSGTDFTLTISSLEPEDFAVYYCQQRSNWPRTFGQGTKVEIK
Regarding B2, the “IC50 of inhibition of MSP induced ERK phosphorylation (AlphaLISA SureFire p-ERK, T47D cells)” value in assay [5] was 14.9 nM.

B3: 3F8 (antibody, V domains shown)
VH: EVKLQESGGGLVQPGRSLKLSCVASGFTFSSFWMHWVRQSPEKGLEWVAEIRLKSNNYATHYAESVKGRFTISRDDSKSSVHLQMNNLRTEDTGIYYCIPPYYYTVDYWGQGTSVTVSS
VL: DIVLTQTPKVMSTSVGDRVSVTCKASQNVNTNVAWYQQKPGQSPKALIYSASSRYSGVPDRFTGSGSGTDFTLTISNVQSEDLADYFCQQYNTYPLTFAAGTKLELK
notes: Mouse monoclonal antibody from a hybridoma; kappa light chain; also called Antibody 3F8; anti-RON antibody 3F8
In turn, B3 yielded a kon in assay [6] of 2.44e+06 M⁻¹ s⁻¹. For the same molecule, the dissociation rate constant (koff) in [2] stood at 0.000358 s⁻¹. The Kd in [3] is 0.15 nM; in assay [7], 0.146 nM.

B4: 3F6 (antibody, V domains shown)
VH: EVKLEESGPGLVKPSQSLSLTCSVTGYSITSGYYWNWIRQFPGNKLEWMGFMSYDGSNNYNPSLKNRISITRDTSKNQFFLKLNSVTSEDTATYYCSRALAYYGNFDYWGQGTTLTVSS
VL: DIVLTQTPSSLSASLGDRVTISCSASQDISNYLNWYQQKPDGIVKLLIYYTSSLHSGVPSRFSGSGSGTDFSLTISNLEPEDIATYYCQQYNKLPWTFGGGTKLEIK
notes: Mouse monoclonal antibody from a hybridoma; kappa light chain; also called anti-RON antibody 3F6
As to B4, the Kd in assay [8] and in assay [3] was 13.4 nM throughout. The kon in assay [9] was 270000 M⁻¹ s⁻¹.

B5: 9F2 (antibody, V domains shown)
VH: QVKLQQSGPGLVAPSQSLSITCTVSGFSLTSYGVHWVRQPPGKGLEWLGVIWAGGTTNYNSALMSRLSISKDNSKSQVFLKMNSLQTDDTAMYYCASYDYDGYFDVWGAGTTVTVSS
VL: DIVLTQTTAIMSASPGEKVTMTCSASSSVSYIHWYQQKSSTSPKLWIYDTSKLASGVPGRFSGSGSGNSYSLTISSMEAEDVATYYCFQGNKYPLTFGAGTKLELK
notes: Mouse monoclonal antibody from a hybridoma; kappa light chain; also called Antibody 9F2; anti-RON antibody 9F2
B5: the Kd is 2.74 nM in assay [10] and 2.7 nM in assay [3]. Besides, the off-rate (koff) in assay [2] turned out to be 0.00353 s⁻¹. The same molecule yielded an association rate constant (kon) in assay [11] of 129000 M⁻¹ s⁻¹.

B6: 6A9 (antibody, V domains shown)
VH: EVKLEESGPGLLKPSQSLSLTCTVTGSSITSDYAWNWIRQFPGNKLEWMGYIGYSVGTSHNPSLKGRISITRDTSKNQFFLHLNSVTTEDTAIYYCARRPLYFYYAMDFWGQGTSVTVSS
VL: DIVLTQSPSSLSASLGDRVTITCRASQDISKYLNWYQQKPDGTVKLLIYYTSTLHSGVPSRFSGSGSGTDFSLTITNLEQEDIATYFCQQGNTLPRTFGGGTKLEIK
notes: Mouse monoclonal antibody from a hybridoma; kappa light chain; also called Antibody 6A9; anti-RON antibody 6A9
In turn, B6 gave an on-rate constant (kon) in assay [12] of 266000 M⁻¹ s⁻¹. Also, the results for the Kd in [13] and in assay [3] were 8.57 nM and 8.6 nM, respectively. Also, the dissociation rate constant (koff) in assay [2] turned out to be 0.00228 s⁻¹.

B7: chimeric 10G1 (mouse Fab with human Fc backbone) (antibody, V domains shown)
VH: EVKLEQSGGGLVQPGGSRKLSCAASGFTFSSFGMHWVRQAPEKGLEWVAYISGGSGTFYYADTVKGRFTISRDNPKNTLFLQMTSLRSEDTAIYYCARSTTVLDYWGQGTTLTVSS
VL: DIVLTQTPSSMYAFLGERVTIICKASQDINNYLNWVQQKPGKAPKTLIYHADRLADGVPSRFSGSGSGQDYSLTISSLEYEDMGIYYCLQYDDFPPFTFGSGTKLEIK
With B7, the “EC50 of antibody dependent cellular cytotoxicity (xCELLigence, T47D targets, human NK cells, E:T 10:1)” value in assay [5] worked out at 3 pM.

B8: 3G4 (antibody, V domains shown)
VH: EVQLQESGPELVKPGTSVRISCKASGYTFTSYYMHWVKQRPGQGLEWIGYIYPGNVNTKYNEKFKGKATLTADKSSSTAYMQLSSLTSEDSAVYFCARLGYYRYGGAMDYWGQGTAVTVSS
VL: DIVLTQTPAILSVSPGERVSFSCRASQSIGTSIHWYQQRTNGSPRLLIKYASESISGIPSRFSGSGSGTDFTLRINSVESEDLADYYCQQSDSWPTTFGGGTKLEIKR
notes: Mouse monoclonal antibody from a hybridoma (supernatant or purified); kappa light chain; also called Antibody 3G4; anti-RON antibody 3G4
B8: the on-rate constant (kon) in assay [14] came out at 3.18e+06 M⁻¹ s⁻¹. Also, the “IC50 of inhibition of MSP induced ERK phosphorylation (AlphaLISA SureFire p-ERK, T47D cells)” value in assay [5] came to 68 nM. For the same molecule, the dissociation rate constant (koff) in assay [2] was 0.000968 s⁻¹. The results for the Kd in assay [3] and in [15] were 0.3 nM and 0.305 nM, respectively.
